Numbering of substitutions follows the chain as printed.
What was measured:
[1] = target: T1, Zif268 wildtype (three zinc fingers, phage displayed) (Mus musculus, UniProt P08046 P08046:333-421); assay: ELONA; apparent Kd, phage ELISA, PBS/Zn, RT
[2] = target: T1, Zif268 wildtype (three zinc fingers, …); assay: apparent Kd interpolated from microarray signal 0.372
[3] = target: T1, Zif268 wildtype (three zinc fingers, …); assay: apparent Kd interpolated from microarray signal 0.320
[4] = target: T1, Zif268 wildtype (three zinc fingers, …); assay: apparent Kd interpolated from microarray signal 0.150
[5] = target: T1, Zif268 wildtype (three zinc fingers, …); assay: apparent Kd interpolated from microarray signal 0.085
[6] = target: T1, Zif268 wildtype (three zinc fingers, …); assay: ELONA; negative control; apparent Kd; microarray signal 0.052

B1: Zif268 site TAG (dsDNA)
DNA 1: TATATAGCGTAGGCGTATATATCAAGTCAATCGGTCC
DNA 2: GGACCGATTGACTTGATATATACGCCTACGCTATATA
modifications: [none]
Question: With B1 as the binder, how does the Kd [1] read?
Answer: Its Kd is 6.7 nM.

B2: Zif268 site GGG (dsDNA)
DNA 1: B1 DNA 1 with T10G, A11G
DNA 2: B1 DNA 2 with T27C, A28C
modifications: [none]
Question: For B2, which Kd [2] is on record?
Answer: Its Kd is 28 nM.

B3: Zif268 site CGG (dsDNA)
DNA 1: B1 DNA 1 with T10C, A11G
DNA 2: B1 DNA 2 with T27C, A28G
modifications: [none]
Question: B3 was tested. Which Kd [3] did it give?
Answer: Its Kd is 35 nM.

B4: Zif268 site AGG (dsDNA)
DNA 1: B1 DNA 1 with T10A, A11G
DNA 2: B1 DNA 2 with T27C, A28T
modifications: [none]
Question: With B4 as the binder, how does the Kd [1] read?
Answer: The Kd was 54 nM.

B5: Zif268 site TTG (dsDNA)
DNA 1: B1 DNA 1 with A11T
DNA 2: B1 DNA 2 with T27A
modifications: [none]
Question: Which Kd [1] does the source give for B5 here?
Answer: The Kd was 71 nM.

B6: Zif268 site GAG (dsDNA)
DNA 1: B1 DNA 1 with T10G
DNA 2: B1 DNA 2 with A28C
modifications: [none]
Question: For B6, which Kd [4] is on record?
Answer: Its Kd is 75 nM.

B7: Zif268 site TCG (dsDNA)
DNA 1: B1 DNA 1 with A11C
DNA 2: B1 DNA 2 with T27G
modifications: [none]
Question: With B7 as the binder, how does the Kd [5] read?
Answer: The Kd was 180 nM.

B8: Zif268 site CAG (dsDNA)
DNA 1: B1 DNA 1 with T10C
DNA 2: B1 DNA 2 with A28G
modifications: [none]
Question: B8 was tested. Which Kd [1] did it give?
Answer: Its Kd is 380 nM.

B9: Zif268 site AAA (dsDNA)
DNA 1: B1 DNA 1 with T10A, G12A
DNA 2: B1 DNA 2 with C26T, A28T
modifications: [none]
Question: How did the Kd [6] turn out when B9 was run?
Answer: Its Kd is > 5000 nM.
